In paper PMC2783235 one finds percent dimer and Kd relative to FT-HT-Xa (relative to FT-HT-Xa) data, which are given here for 7 substances.

Assay [1] addresses I67C (single-Cys mutant of FT-HT-Xa) (S. cerevisiae) (UniProt D6VTK4). As to the kind of experiment: cross-linking.
Assay [2] has the same target. As to the kind of experiment: cross-linking. This is another data set of the same source.
For assay [3] the target is unchanged. Nature of the assay: SDS-PAGE and western blot of membranes.
Assay [4] has the same target. As to the kind of experiment: cross-linking. The source holds these as a separate data set.
The target of assay [5] is T278C (single-Cys mutant of FT-HT-Xa) (S. cerevisiae) (UniProt D6VTK4). Nature of the assay: cross-linking.
Assay [6] has the same target. As to the kind of experiment: cross-linking. This is another data set of the same source.
For assay [7] the target is unchanged. As to the kind of experiment: SDS-PAGE and western blot of membranes.
Assay [8] shares this target. As to the kind of experiment: cross-linking. The source holds these as a separate data set.
Assay [9] addresses V68C (single-Cys mutant of FT-HT-Xa) (S. cerevisiae) (UniProt D6VTK4). Nature of the assay: cross-linking.
Assay [10] has the same target. As to the kind of experiment: cross-linking. This is another data set of the same source.
The target is the same in assay [11]. Nature of the assay: SDS-PAGE and western blot of membranes.
For assay [12] the target is unchanged. Nature of the assay: cross-linking. The source holds these as a separate data set.
Assay [13] has as its target L66C (single-Cys mutant of FT-HT-Xa) (S. cerevisiae) (UniProt D6VTK4). As to the kind of experiment: cross-linking.
Assay [14] has the same target. As to the kind of experiment: cross-linking. This is another data set of the same source.
For assay [15] the target is unchanged. Nature of the assay: SDS-PAGE and western blot of membranes. Background: A western blot detects proteins with antibodies after separation by electrophoresis.
For assay [16] the target is unchanged. Nature of the assay: cross-linking. This is another data set of the same source.
In assay [17] the target is A296C (single-Cys mutant of FT-HT-Xa) (S. cerevisiae) (UniProt D6VTK4). Nature of the assay: radioligand binding.
The target in assay [18] is I67C (single-Cys mutant of FT-HT-Xa) (S. cerevisiae) (UniProt D6VTK4). Nature of the assay: radioligand binding.
Assay [19] deals with L283C (single-Cys mutant of FT-HT-Xa) (S. cerevisiae) (UniProt D6VTK4). Nature of the assay: radioligand binding.
The target in assay [20] is L284C (single-Cys mutant of FT-HT-Xa) (S. cerevisiae) (UniProt D6VTK4). Nature of the assay: radioligand binding.
Assay [21] deals with L287C (single-Cys mutant of FT-HT-Xa) (S. cerevisiae) (UniProt D6VTK4). As to the kind of experiment: radioligand binding.
For assay [22], the target named is L289C (single-Cys mutant of FT-HT-Xa) (S. cerevisiae) (UniProt D6VTK4). Nature of the assay: radioligand binding.
In assay [23] the target is L291C (single-Cys mutant of FT-HT-Xa) (S. cerevisiae) (UniProt D6VTK4). Nature of the assay: radioligand binding.
Assay [24] addresses L64C (single-Cys mutant of FT-HT-Xa) (S. cerevisiae) (UniProt D6VTK4). Nature of the assay: radioligand binding.
The target of assay [25] is L66C (single-Cys mutant of FT-HT-Xa) (S. cerevisiae) (UniProt D6VTK4). As to the kind of experiment: radioligand binding.
Assay [26] concerns the target S288C (single-Cys mutant of FT-HT-Xa) (S. cerevisiae) (UniProt D6VTK4). Nature of the assay: radioligand binding.
Assay [27] addresses S292C (single-Cys mutant of FT-HT-Xa) (S. cerevisiae) (UniProt D6VTK4). As to the kind of experiment: radioligand binding.
The target of assay [28] is S293C (single-Cys mutant of FT-HT-Xa) (S. cerevisiae) (UniProt D6VTK4). As to the kind of experiment: radioligand binding.
In assay [29] the target is T65C (single-Cys mutant of FT-HT-Xa) (S. cerevisiae) (UniProt D6VTK4). Nature of the assay: radioligand binding.
Assay [30] addresses V286C (single-Cys mutant of FT-HT-Xa) (S. cerevisiae) (UniProt D6VTK4). As to the kind of experiment: radioligand binding.
Assay [31] deals with V68C (single-Cys mutant of FT-HT-Xa) (S. cerevisiae) (UniProt D6VTK4). Nature of the assay: radioligand binding.
In assay [32] the target is W295C (single-Cys mutant of FT-HT-Xa) (S. cerevisiae) (UniProt D6VTK4). As to the kind of experiment: radioligand binding.
Assay [33] deals with M69C (single-Cys mutant of FT-HT-Xa) (S. cerevisiae) (UniProt D6VTK4). Nature of the assay: cross-linking.
For assay [34] the target is unchanged. As to the kind of experiment: cross-linking. The source holds these as a separate data set.
For assay [35] the target is unchanged. As to the kind of experiment: SDS-PAGE and western blot of membranes.
For assay [36] the target is unchanged. Nature of the assay: cross-linking. The source holds these as a separate data set.
For assay [37], the target named is T279C (single-Cys mutant of FT-HT-Xa) (S. cerevisiae) (UniProt D6VTK4). Nature of the assay: cross-linking.
For assay [38] the target is unchanged. Nature of the assay: cross-linking. The source holds these as a separate data set.
Assay [39] has the same target. Nature of the assay: SDS-PAGE and western blot of membranes.
For assay [40] the target is unchanged. Nature of the assay: cross-linking. This is another data set of the same source.

Regarding “I67C (single-Cys mutant of FT-HT-Xa) (from UniProt D6VTK4 1-431) (receptor)”, the percent dimer in [1] was 17.4%; in assay [2] it was 18%; in [3] it was 19.3%; in assay [4] it was 17%.

On to “T278C (single-Cys mutant of FT-HT-Xa) (from UniProt D6VTK4 1-431) (receptor)”, for which the percent dimer came to 12.5% in assay [5], 12.4% in assay [6], 15.1% in assay [7] and 65.8% in assay [8].

Consider “V68C (single-Cys mutant of FT-HT-Xa) (from UniProt D6VTK4 1-431) (receptor)”, for which the percent dimer in assay [9] came to 98.3%; in assay [10], 98.8%; in [11], 28.5%; in assay [12], 99.2%.

As for “L66C (single-Cys mutant of FT-HT-Xa) (from UniProt D6VTK4 1-431) (receptor)”, the percent dimer in [13] stood at 13.2%; in assay [14], 11.9%; in [15], 12.3%; in assay [16] it was 11.9%.

As for “Tritiated α-factor ([3H]α-factor) (peptide)”, the Kd relative to FT-HT-Xa (relative to FT-HT-Xa) in [17] stood at 0.4; in assay [18], 2.2; in [19] it was 4.7; in assay [20] it was 1.1; in [21], 1.1; in assay [22], 2.1. Further, the Kd relative to FT-HT-Xa (relative to FT-HT-Xa) worked out at 1.7 in assay [23]; 2.5 in assay [24]; 0.5 in assay [25]; 4.1 in assay [26]; 0.2 in assay [27]; 2.5 in assay [28]. Further, the Kd relative to FT-HT-Xa (relative to FT-HT-Xa) in [29] was 1.5; in assay [30], 1.9; in assay [31], 1.1; in assay [32], 1.3.

Regarding “M69C (single-Cys mutant of FT-HT-Xa) (from UniProt D6VTK4 1-431) (receptor)”, the percent dimer in assay [33] worked out at 17%; in [34], 28.9%; in assay [35] it was 17.7%; in [36], 14.2%.

Turning to “T279C (single-Cys mutant of FT-HT-Xa) (from UniProt D6VTK4 1-431) (receptor)”, the percent dimer amounted to 15.8% in assay [37], 10.9% in [38], 17.3% in assay [39] and 10.1% in assay [40].
